{"source": "paper PMC3870659", "biological_target": "integrin α4β7 on freshly isolated human primary B cells (human (endogenous in primary B cells)) (UniProt P13612)", "sequence (P13612 34-1032, chain 1 of 2)": "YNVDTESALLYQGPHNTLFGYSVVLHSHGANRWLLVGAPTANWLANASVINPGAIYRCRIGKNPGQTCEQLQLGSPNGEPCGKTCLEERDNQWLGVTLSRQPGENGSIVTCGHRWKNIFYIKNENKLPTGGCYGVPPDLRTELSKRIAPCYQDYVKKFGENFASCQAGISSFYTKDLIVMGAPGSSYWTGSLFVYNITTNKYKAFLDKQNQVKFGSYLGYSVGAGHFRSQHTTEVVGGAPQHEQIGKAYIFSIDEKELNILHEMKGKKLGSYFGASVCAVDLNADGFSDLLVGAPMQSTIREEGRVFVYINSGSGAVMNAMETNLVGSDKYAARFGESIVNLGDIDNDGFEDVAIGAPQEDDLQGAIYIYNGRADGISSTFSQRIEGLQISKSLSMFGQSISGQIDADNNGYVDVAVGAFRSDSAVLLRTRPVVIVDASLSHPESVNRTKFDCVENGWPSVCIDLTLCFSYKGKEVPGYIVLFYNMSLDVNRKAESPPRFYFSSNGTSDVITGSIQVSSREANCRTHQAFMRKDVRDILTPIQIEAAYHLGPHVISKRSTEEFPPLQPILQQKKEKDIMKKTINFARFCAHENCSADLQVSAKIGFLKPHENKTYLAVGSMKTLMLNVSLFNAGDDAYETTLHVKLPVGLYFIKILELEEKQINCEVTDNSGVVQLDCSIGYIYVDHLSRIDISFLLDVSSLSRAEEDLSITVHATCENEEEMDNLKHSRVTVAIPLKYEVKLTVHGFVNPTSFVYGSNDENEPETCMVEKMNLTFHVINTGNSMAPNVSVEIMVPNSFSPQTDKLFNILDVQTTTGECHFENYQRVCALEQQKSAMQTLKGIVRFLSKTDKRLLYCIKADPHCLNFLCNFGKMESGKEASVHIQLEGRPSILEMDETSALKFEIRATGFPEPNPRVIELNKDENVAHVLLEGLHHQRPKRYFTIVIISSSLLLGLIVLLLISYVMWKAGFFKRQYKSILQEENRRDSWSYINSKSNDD", "sequence (P26010 20-798, chain 2 of 2, further chain)": "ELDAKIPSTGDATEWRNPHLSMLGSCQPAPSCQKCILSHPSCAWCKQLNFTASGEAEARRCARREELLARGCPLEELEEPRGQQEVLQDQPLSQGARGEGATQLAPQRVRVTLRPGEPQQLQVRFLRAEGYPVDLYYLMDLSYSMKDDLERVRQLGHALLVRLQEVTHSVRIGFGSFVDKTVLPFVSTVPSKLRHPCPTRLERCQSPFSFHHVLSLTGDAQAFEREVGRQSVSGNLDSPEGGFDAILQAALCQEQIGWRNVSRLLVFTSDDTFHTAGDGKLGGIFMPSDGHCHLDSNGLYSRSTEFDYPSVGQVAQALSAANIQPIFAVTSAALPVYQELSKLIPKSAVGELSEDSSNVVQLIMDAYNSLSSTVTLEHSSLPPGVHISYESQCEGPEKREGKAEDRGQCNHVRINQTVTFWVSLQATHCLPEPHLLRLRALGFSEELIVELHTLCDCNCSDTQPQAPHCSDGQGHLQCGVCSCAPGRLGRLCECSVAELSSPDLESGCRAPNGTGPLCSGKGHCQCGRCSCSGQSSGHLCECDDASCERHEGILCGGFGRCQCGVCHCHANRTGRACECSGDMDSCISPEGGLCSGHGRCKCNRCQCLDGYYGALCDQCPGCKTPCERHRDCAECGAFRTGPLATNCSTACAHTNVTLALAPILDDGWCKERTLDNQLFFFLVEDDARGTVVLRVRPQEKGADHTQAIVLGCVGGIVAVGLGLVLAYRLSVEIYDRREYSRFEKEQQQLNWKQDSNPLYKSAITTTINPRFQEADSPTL"}
{"substance": "R66M gp120 (HIV-1 envelope protein gp120 of the early viral isolate R66M, subtype A/C) (natural protein)", "values": [{"measurement": "FCRL4 mRNA (microarray) in anti-IgM + CpG stimulated B cells, 6 h with gp120", "result": 8, "unit": "fold"}]}
